PMC10003956, “To the Understanding of Catalysis by D-Amino Acid Transaminases: A Case Study of the Enzyme from Aminobacterium colombiense” (Molecules, 2023)

Molecular target: D-amino acid transaminase from Aminobacterium colombiense (AmicoTA) (Aminobacterium colombiense)
Test: SEC; gel filtration of AmicoTA in solution (Figure S7); conditions not told for this experiment

- stoichiometry N: 2
Substance: D-amino acid transaminase from Aminobacterium colombiense (AmicoTA) (enzyme)
